Experimental data: patent publication US20180339057A1 (Novo Nordisk, published 2018)

Key:
[1] = molecular target: T1, human MIC-1 receptor (hGFRAL, GDNF family receptor alpha like), full length (human, UniProt Q6UXV0 19-394); assay: cell-based or functional assay
T1 sequence (looked up): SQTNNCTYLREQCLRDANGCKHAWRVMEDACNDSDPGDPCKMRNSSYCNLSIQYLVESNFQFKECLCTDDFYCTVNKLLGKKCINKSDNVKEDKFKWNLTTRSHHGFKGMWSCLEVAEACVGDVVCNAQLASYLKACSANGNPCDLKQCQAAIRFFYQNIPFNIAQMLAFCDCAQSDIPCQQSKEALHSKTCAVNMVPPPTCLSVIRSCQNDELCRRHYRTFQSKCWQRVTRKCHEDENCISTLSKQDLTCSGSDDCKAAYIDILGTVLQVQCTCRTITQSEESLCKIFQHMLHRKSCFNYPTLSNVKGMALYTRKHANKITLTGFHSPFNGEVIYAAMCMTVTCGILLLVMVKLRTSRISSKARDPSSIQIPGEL

[2] = molecular target: T1, human MIC-1 receptor (hGFRAL, GDNF …); assay: cell-based or functional assay; remark: listed apart in the source
[3] = molecular target: T1, human MIC-1 receptor (hGFRAL, GDNF …); assay: SPA: displacement of 50 pM human [125I]-MIC-1 from BHK21-hGFRAL-IRES-hRET cell membranes
Method: Binding potencies of MIC-1 compounds were calculated by IC50 of displacement curves.
BHK21-hGFRAL-IRES-hRET cells were cultured at +37° C. in a humidified atmosphere with 5% CO₂ in complete medium consisting of DMEM with high glucose and sodium pyrovate, heat inactivated 10% Fetal Bovine Serum, 1% Penicillin-Streptomycin, 1 mg/ml G418-Geneticin and 400 ug/ml Hygromycin. Cells were washed twice in ice cold Dulbecco's phosphate-buffered saline (DPBS) and detached mechanically by scraping, transferred in ice cold DPBS into conical centrifuge tubes and centrifuged for 5 min at 1500 rpm at +20° C. Cell pellet was resuspended in a total amount of 10 ml ice cold homogenization buffer A (50 mM Tris, 2.5 mM EDTA, adjust pH7.4 with one EDTA-free protease inhibitor cocktail tablet/50 ml) and homogenized for 20 seconds. The homogenate was centrifuged at 16000 rpm in 20 minutes at +4° C. The supernatant was discarded and the pellet was reconstituted in 10 ml homogenization buffer B (50 mM Tris, 320 mM Sucrose, adjust pH 7.4 with one EDTA-free protease inhibitor cocktail tablet/50 ml) and homogenized for 20 seconds and centrifuged at 16000 rpm in 20 minutes at +4° C. This procedure was repeated one more time. The supernatant was discarded and the pellet was reconstituted in 3 ml homogenization buffer B and homogenized for 10 seconds at low speed. Protein concentration was determined by standard Bradford method and 1.5 mg protein/tube was aliquoted to cryotubes and stored at −80° C. Binding assays were performed in white 96-well plates in a total volume of 200 μl per well. Wheat germ agglutinin SPA beads were reconstituted in assay buffer (50 mM Tris/HCl, 4.5 mM MgCl₂, 0.02% Tween 20 and 0.25% Ovalbumin pH 7.4) and mixed with membrane preparation to give a final concentration of 0.5 mg SPA beads and 10 μg total protein per well. […] The plate was sealed and incubated at +22° C. for 2 hours in a plate shaker set at 350 rpm and thereafter centrifuged at 1500 rpm for 10 minutes prior to reading of SPA bead light emission.

Binder | Emax (%) [1] [%] | pERK EC50 (nM) [1] [nM] | Luciferase + 0.1% HSA NNDK EC50 (pM) [2] [pM] | Luciferase NNDK EC50 (pM) [2] [pM] | IC50 [3] [nM]
MIC-1(R2A,N3E,A81E) (ligand) AAEGDHCPLGPGRCCRLHTVRASLEDLGWADWVLSPREVQVTMCIGACPSQFRAANMHAQIKTSLHRLKPDTVPAPCCVPESYNPMVLIQKTDTGVSLQTYDDLLAKDCHCI | 100 | 0.3 | – | – | –
SEPATSGSETPGTSESATPESGPGTSTEPSEG-MIC-1-Δ1-3 (ligand) SEPATSGSETPGTSESATPESGPGTSTEPSEGGDHCPLGPGRCCRLHTVRASLEDLGWADWVLSPREVQVTMCIGACPSQFRAANMHAQIKTSLHRLKPDTVPAPCCVPASYNPMVLIQKTDTGVSLQTYDDLLAKDCHCI | 100 | 0.4 | – | – | –
SEPATSGSETPGTSESATPESGPGTSTEPSEG-MIC-1-des-N3 (M57L, M86L) (ligand, homodimer; no protractor) SEPATSGSETPGTSESATPESGPGTSTEPSEGARGDHCPLGPGRCCRLHTVRASLEDLGWADWVLSPREVQVTMCIGACPSQFRAANLHAQIKTSLHRLKPDTVPAPCCVPASYNPLVLIQKTDTGVSLQTYDDLLAKDCHCI | – | – | 64 | 85 | 119
Compound 04 (ligand, Cys-27 (residue 6 of SEQ ID NO: 291): S{Beta}-[2-[2-[[2-[2-[2-[[2-[2-[2-[[(4S)-4-carboxy-4-(13-carboxytridecanoylamino)butanoyl]amino]ethoxy]ethoxy]acetyl]amino]ethoxy]ethoxy]acetyl]amino]ethylamino]-2-oxoethyl]Cys (protractor of Example 10.3), homodimer, two protractors per dimer) SEPATCGSETPGTSESATPESGPGTSTEPSEGARGDHCPLGPGRCCRLHTVRASLEDLGWADWVLSPREVQVTMCIGACPSQFRAANMHAQIKTSLHRLKPDTVPAPCCVPASYNPMVLIQKTDTGVSLQTYDDLLAKDCHCI | – | – | 58 | 90 | 17
Compound 01 (ligand, Cys-29 (residue 4 of SEQ ID NO: 288): S{Beta}-[2-[2-[[2-[2-[2-[[2-[2-[2-[[(4S)-4-carboxy-4-(17-carboxyheptadecanoylamino)butanoyl]amino]ethoxy]ethoxy]acetyl]amino]ethoxy]ethoxy]acetyl]amino]ethylamino]-2-oxoethyl]Cys (protractor of Example 10.4), homodimer, two protractors per dimer) SEPCTSGSETPGTSESATPESGPGTSTEPSEGARGDHCPLGPGRCCRLHTVRASLEDLGWADWVLSPREVQVTMCIGACPSQFRAANMHAQIKTSLHRLKPDTVPAPCCVPASYNPMVLIQKTDTGVSLQTYDDLLAKDCHCI | – | – | 59 | 72 | 3.8
Compound 03 (ligand, Cys-27 (residue 6 of SEQ ID NO: 291): S{Beta}-[2-[2-[[2-[2-[2-[[2-[2-[2-[[(4S)-4-carboxy-4-(15-carboxypentadecanoylamino)butanoyl]amino]ethoxy]ethoxy]acetyl]amino]ethoxy]ethoxy]acetyl]amino]ethylamino]-2-oxoethyl]Cys (protractor of Example 10.2), homodimer, two protractors per dimer) SEPATCGSETPGTSESATPESGPGTSTEPSEGARGDHCPLGPGRCCRLHTVRASLEDLGWADWVLSPREVQVTMCIGACPSQFRAANMHAQIKTSLHRLKPDTVPAPCCVPASYNPMVLIQKTDTGVSLQTYDDLLAKDCHCI | – | – | 106 | 96 | 11
Compound 02 (ligand, Cys-27 (residue 6 of SEQ ID NO: 291): S{Beta}-[2-[2-[[2-[2-[2-[[2-[2-[2-[[(4S)-4-carboxy-4-(17-carboxyheptadecanoylamino)butanoyl]amino]ethoxy]ethoxy]acetyl]amino]ethoxy]ethoxy]acetyl]amino]ethylamino]-2-oxoethyl]Cys, homodimer, two protractors per dimer) SEPATCGSETPGTSESATPESGPGTSTEPSEGARGDHCPLGPGRCCRLHTVRASLEDLGWADWVLSPREVQVTMCIGACPSQFRAANMHAQIKTSLHRLKPDTVPAPCCVPASYNPMVLIQKTDTGVSLQTYDDLLAKDCHCI | – | – | 107 | 123 | 4.9
Compound 05 (ligand, Cys-26 (residue 7 of SEQ ID NO: 289): S{Beta}-[2-[2-[[2-[2-[2-[[2-[2-[2-[[(4S)-4-carboxy-4-(17-carboxyheptadecanoylamino)butanoyl]amino]ethoxy]ethoxy]acetyl]amino]ethoxy]ethoxy]acetyl]amino]ethylamino]-2-oxoethyl]Cys (protractor of Example 10.4), homodimer, two protractors per dimer) SEPATSCSETPGTSESATPESGPGTSTEPSEGARGDHCPLGPGRCCRLHTVRASLEDLGWADWVLSPREVQVTMCIGACPSQFRAANLHAQIKTSLHRLKPDTVPAPCCVPASYNPLVLIQKTDTGVSLQTYDDLLAKDCHCI | – | – | 63 | 57 | 23
(SEPATSGSETPG)2-MIC-1-Δ1-3(M86L) (ligand) SEPATSGSETPGSEPATSGSETPGGDHCPLGPGRCCRLHTVRASLEDLGWADWVLSPREVQVTMCIGACPSQFRAANMHAQIKTSLHRLKPDTVPAPCCVPASYNPLVLIQKTDTGVSLQTYDDLLAKDCHCI | 100 | 0.4 | – | – | –
(SEPATSGSETPG)2-MIC-1-Δ1-3(M57L, M86L) (ligand) SEPATSGSETPGSEPATSGSETPGGDHCPLGPGRCCRLHTVRASLEDLGWADWVLSPREVQVTMCIGACPSQFRAANLHAQIKTSLHRLKPDTVPAPCCVPASYNPLVLIQKTDTGVSLQTYDDLLAKDCHCI | 100 | 0.4 | – | – | –
